For one data set, the system named is PDCL3 with VEGFR-2. As to the kind of experiment: Brefeldin A treatment, co-immunoprecipitation of PDCL3 with VEGFR-2. The class given is cell-based. Conditions: HEK-293 cells. The protocol: FIG. 7A. Cells expressing VEGFR-2 alone or together were subjected cell surface biotinylation. Non-biotinylated and biotinylated fractions were immunoprecipitated with anti-VEGFR-2 antibody and blotted for PDCL3 using anti-c-Myc antibody. Non-biotinylated and biotinylated fractions also were blotted for VEGFR-2 and PARP as a control. FIG. 7B. HEK-293 cells were co-transfected with Myc-tagged PDCL3 and VEGFR-2 and after 48 hours they were treated with BFA or control vehicle. Cells were lysed and whole cell lysates were either blotted for VEGFR-2 or were subjected co-immunoprecipitation using anti-c-Myc antibody followed by immunoblotting with anti-VEGFR-2. FIG. 7C. HEK-293 cells were co-transfected with Myc-tagged PDCL3 and VEGFR-2 and after 48 hours cells were fixed and subjected to IF staining as described in Materials and Method section. Cells were stained with anti-PDCL3, anti-c-myc antibodies (FIGS. 7C-7D) or endoplasmic reticulum specific dye FIG. 7E.

Another data set deals with zebrafish embryos. As to the kind of experiment: Zebrafish angiogenesis assay. The class given is in vivo, zebrafish (Danio rerio). Conditions: microinjection into embryos, 28 hpf. The method, then: The vectors were linearized with Not I restriction enzyme, treated with Proteinase K (SIGMA) and extracted with phenol. Linearized plasmid DNA (1 μg/μl) in RNAse-free water was used for in vitro capped mRNA synthesis using the MMESSAGE MMACHINE® SP6 kit (AMBION) according to manufacturer instructions and RNA subsequently was used to inject into zebrafish embryos.
Fli-eGFP-transgenic adult male and female zebrafish (Danio rerio) were housed in […] light-dark cycle at a temperature of (26.5° C.) and a pH of (7.0-7.4) in a controlled multi-tank recirculating water system (Aquatic Habitats, Apopka, Fla.). Fish were fed twice daily with live brine shrimp (Brine Shrimp Direct, Ogden, Utah) and flake food (TetraMin; Tetra, Blacksburg, Va.). A glass capillary needle attached to a Femtojet injector (EPPENDORF) was used for injecting RNA (10 or 5 ng/μl in approximately 10 pl) into 1- or 2-cell-stage embryos. The embryos were grown at 28° C. for 3 days. The embryos were examined after 28 or 50 hpf using Zeiss immunofluorescence microscope. The images of fish under same setting were obtained for 10 fish per group at every experiment and analyzed for the length of the tail vessels using IMAGE-PRO® software and for the tail vessel plexus fluorescent intensity using Image J software.

The test system of a further data set is PDCL3 and VEGFR-2. The data set is described as follows: Chemical hypoxia, expression of PDCL3 and VEGFR-2. The format is cell-based. An excerpt: To test whether, increased expression of VEGFR-2 in response to hypoxia is linked to induction of PDCL3 expression, we silenced expression of PDCL3 by siRNA and analyzed measured VEGFR-2 levels.
Data set [1] concerns VEGFR-2. As to the kind of experiment: Co-immunoprecipitation with VEGFR-2 and VEGFR-2 ubiquitination blot. Particulars: HEK-293 cells co-expressing VEGFR-2. The format is cell-based. The method, then:
(§1) FIG. 6A. Cell lysates from HEK-293 cells co-expressing PDCL3 with VEGFR-2 or HA-PDCL3 with VEGFR-2 were immunoprecipitated with VEGFR-2 and immunoblotted for PDCL3 using anti-Myc antibody. Whole cell lysates was also blotted for VEGFR-2, PDCL3 and HSp70 as a loading control. Ubiquitination of VEGFR-2 was determined by immunoprecipitation with anti-VEGFR-2 followed by immunoblotting with anti-ubiquitin antibody. FIG. 6B. The graph is quantification of the ubiquitination blot of VEGFR-2. FIG. 6C. Angiogenic potential of wild-type and HA-tagged methionine mutant PDCL3 expressed in PAE cells is shown. PAE cells engineered to express VEGFR-2 alone, VEGFR-2 with wild-type PDCL3 or VEGFR-2 with HA-tagged methionine mutant PDCL3. Cells were plated on matrigel and pictures were taken after 12 hours. Image J was used to quantify tube formation. Graph is representative of three independent experiments.
Plasmids and siRNA: Human Phosducin like protein 3 cDNA (PDCL3 also called PHLP2A) (Clone #3344703, accession #BC001021) was purchased from OPEN BIOSYSTEMS and was cloned into expression vectors, pcDNA3.1/Myc-His(−) or retroviral pMSCV. Mutant PDCL3 was generated by removing the first methionine and adding HA tag and similarly was cloned into pcDNA3.1 and pMSCV vectors. […]

The next data set relates to PAE cells. As to the kind of experiment: Capillary tube formation on matrigel. The format is cell-based, porcine. Conditions: over-expression with VEGFR-2 in endothelial cells, 12 hours. The protocol:
as §1

Data set [2] relates to VEGFR-2. As to the kind of experiment: Protein aggregation assay (PSA dye), thermo-induced aggregation. The format is biochemical. Conditions: immunoprecipitated VEGFR-2, 45° C. The protocol: Aggregation of VEGFR-2 determined using PSA kit purchased from PROFOLDIN, Inc (Hudson, Mass.) and assay was performed according to manufacturer's guideline. […] When the PSA dye binds to the aggregate, it is immobilized and slows down the rotational movement and inducing the dye to fluoresce. In brief, VEGFR-2 immunoprecipitated from HEK-293 cells and eluded from the protein-sepharose beads. The eluded VEGFR-2 protein was incubated in the 45° C. in the presence or absence of purified GST-PDCL3 for various time points. The Fluorescence intensity was measured at […].

The subject of data set [3] is VEGFR-1, VEGFR-2 and CSF-1R. As to the kind of experiment: Receptor expression in HEK-293 cells expressing PDCL3. The class given is cell-based. The protocol:
FIG. 1A. HEK-293 cells expressing VEGFR-2 were transfected with different concentrations of C-terminus Myc-tagged PDCL3. After 48 hours cells were lysed and whole cell lysates (WCL) were blotted for VEGFR-2, PDCL3 and Hsp70 for loading control. Quantification of premature (newly synthesized and partially glycosylated VEGFR-2 corresponding to lower molecular weight) and mature (fully glycosylated) forms of VEGFR-2 is shown. Mean results of three independent experiments are shown. *P=0.04 and […]. FIG. 1B. Human umbilical vein endothelial cells (HUVECs) were transfected with control siRNA or PDCL3-siRNA. After 48 hours cells serum-starved for overnight followed by stimulation with VEGF for 10 minutes. Cells were lysed and whole cell lysates were blotted for phospho-Y1054-VEGFR-2, total VEGFR-2, PDCL3 and Hsp70 for loading control. FIG. 1C. Thermo-induced aggregation of VEGFR-2 was measured using PSA dye as described in the materials and method section. FIG. 1D. In vitro transcription/translation of VEGFR-2 in the absence or presence of exogenous recombinant PDCL3 was performed as described in the materials and method section and schematic of the procedure is shown. FIG. 1E. In vitro translated VEGFR-2 protein in the absence or presence of exogenous recombinant PDCL3 was blotted for VEGFR-2. FIG. 1F. […]

Data set [4] concerns VEGFR-2. The data set is described as follows: Cycloheximide-chase / VEGF-induced downregulation of VEGFR-2. The class given is cell-based. The protocol: FIG. 2A. Illustrated is the schematic of treatment of cells with cycloheximide (CHX) and VEGF. PAE cells co-expressing VEGFR-2 with empty vector (pMSCV) or PDCL3 were incubated with CHX for 90 minutes followed by stimulation with VEGF for indicated times. Whole cell lysates was blotted for VEGFR-2 and loading control protein, PLCγ1. FIG. 2B. Shown are the quantification of the half-life of mature VEGFR-2 and pre-mature VEGFR-2 based on the VEGFR-2 blot from the panel FIG. 2A. FIGS. 2C-2D. PAE cells co-expressing VEGFR-2 with empty vector (pMSCV) or PDCL3 were stimulated with VEGF for indicated times and whole cell lysates were processed as panel FIG. 2A.
PAE cells expressing VEGFR-2 alone or together with PDCL3 were serum-starved for overnight followed by incubation of cells with serum-free DMEM medium containing cycloheximide (20 μg/ml, 90 min). Cells then were stimulated with VEGF for various times to downregulate cell surface VEGFR-2. Cells were lysed and whole cell lysates was blotted for VEGFR-2 using anti-VEGFR-2 antibody. For measuring half-life of PDCL3 and HA-tagged mutant PDCL3, cells were incubated with serum-free DMEM medium containing cycloheximide (20 μg/ml) for indicated times and cells were lysed and whole cell lysates was blotted for PDCL3.

This is an account of results in patent US11406709B2, “Therapeutic and research application of PDCL3” (TRUSTEES OF BOSTON UNIVERSITY, priority 2014, dated 2022).

As for `C[C@H]1CCC/C=C/[C@@H]2C[C@H](O)C[C@H]2[C@H](O)/C=C/C(=O)O1` [Brefeldin A], the “binding of PDCL3 with VEGFR-2” value in the data set on PDCL3 with VEGFR-2 is recorded as “did not inhibit the binding of PDCL3 with VEGFR-2”.

Turning to “pdcl3 morpholino: PDCL3 morpholino for zebrafish, 5′CGGTGTCTGCGTTTGGGTCCTGCAT3′ (SEQ ID NO: 10), Gene Tools (all phosphorodiamidate morpholino (PMO))”, the “angiogenesis (intersegmental vessel formation)” value in the data set on zebrafish embryos is on record as “significantly inhibited angiogenesis”.

As to `[Cl][Co][Cl]` [cobalt chloride], the “expression of PDCL3 and VEGFR-2” value in the data set on PDCL3 and VEGFR-2 is “similarly increased expression of PDCL3 and VEGFR-2”.

B1: acetylation resistant HA-tagged PDCL3: Mutant PDCL3 generated by removing the first methionine and adding HA tag (protein)
chain: QDPNADTEWNDILRKKGILPPKESLKELEEEAEEEQRILQQSVVKTYEDMTLEELEDHEDEFNEEDERAIEMYRRRRLAEWKATKLKNKFGEVLEISGKDYVQEVTKAGEGLWVILHLYKQGIPLCALINQHLSGLARKFPDVKFIKAISTTCIPNYPDRNLPTIFVYLEGDIKAQFIGPLVFGGMNLTRDELEWKLSESGAIMTDLEENPKKPIEDVLLSSVRRSVLMKRDSDSEGD
modifications: left off: small tags and cut ends
Regarding B1, in the data set with VEGFR-2 [1], the “interaction with VEGFR-2” value is on record as “interacted strongly with VEGFR-2 compared to wild-type PDCL3” and the “ubiquitination of VEGFR-2” value was “prevented VEGFR-2 from ubiquitination”. Further, the angiogenesis/capillary tube formation entry in the data set on PAE cells is recorded as “more robust”.

B2: PDCL3: 239-amino acid human phosducin-like protein 3, SEQ ID NO: 1; expressed from cDNA in cells (protein, listed as Homo sapiens)
chain: MQDPNADTEWNDILRKKGILPPKESLKELEEEAEEEQRILQQSVVKTYEDMTLEELEDHEDEFNEEDERAIEMYRRRRLAEWKATKLKNKFGEVLEISGKDYVQEVTKAGEGLWVILHLYKQGIPLCALINQHLSGLARKFPDVKFIKAISTTCIPNYPDRNLPTIFVYLEGDIKAQFIGPLVFGGMNLTRDELEWKLSESGAIMTDLEENPKKPIEDVLLSSVRRSVLMKRDSDSEGD
modifications: Myc tag in some forms
notes: expressed from cDNA in cells
Regarding B2, the angiogenesis/capillary tube formation entry in the data set on PAE cells is on record as “increased angiogenesis/capillary tube formation”. Moreover, the “aggregation of VEGFR-2” value in the data set with VEGFR-2 [2] was “significantly reduced aggregation of VEGFR-2 in a time-dependent manner”. The “expression of VEGFR-1, VEGFR-2 and CSF-1R” value in data set [3] is “markedly increased expression of VEGFR-1, VEGFR-2 and CSF-1R”. Also, the “abundance of premature and mature forms of VEGFR-2” value in data set [3] (different concentrations of Myc-tagged PDCL3, 48 hours) was “increases the abundance of premature and mature forms of VEGFR-2 in a dose-dependent manner”. The “half-life of newly made VEGFR-2” value with VEGFR-2 [4] (PAE cells co-expressing VEGFR-2 with PDCL3) is recorded as “extends the half-life of newly made VEGFR-2”. In addition, the “VEGF-induced downregulation of mature VEGFR-2” value in the data set with VEGFR-2 [4] (PAE cells, absence of cycloheximide) was “markedly slower”.
